Test [1] has as its target turtle bombesin receptor subtype-3 (turtle (Chrysemys picta)). Description: radioligand binding; displacement of 50 pM [125I]-Tyr42-GRP by unlabeled peptide on disaggregated transfected HEK293 cells; 1 h at 21°C; 24.5 mM HEPES pH 7.4, 98 mM NaCl; bound tracer separated by centrifugation.
Test [2] concerns the target spotted gar bombesin receptor subtype-3 (spotted gar (Lepisosteus oculatus)). The test is described as above.
Test [3] deals with chicken bombesin receptor subtype-3 (chicken (Gallus gallus)). The test is described as above.
For test [4], the target named is turtle bombesin receptor subtype-3 (turtle (Chrysemys picta)). Description: radioligand binding; displacement of 50 pM [125I]-Tyr-NMB by unlabeled peptide on disaggregated transfected HEK293 cells; 1 h at 21°C; 24.5 mM HEPES pH 7.4, 98 mM NaCl; bound tracer separated by centrifugation.
Test [5] addresses spotted gar bombesin receptor subtype-3 (spotted gar (Lepisosteus oculatus)). The test is described as above.
The target of test [6] is aardvark bombesin receptor subtype-3 (aardvark (Orycteropus afer)). Described as above.
Test [7] has as its target chicken bombesin receptor subtype-3 (chicken (Gallus gallus)). Described as above.

Sequence of turtle bombesin receptor subtype-3 (turtle (Chrysemys picta)) (main, as listed by the source): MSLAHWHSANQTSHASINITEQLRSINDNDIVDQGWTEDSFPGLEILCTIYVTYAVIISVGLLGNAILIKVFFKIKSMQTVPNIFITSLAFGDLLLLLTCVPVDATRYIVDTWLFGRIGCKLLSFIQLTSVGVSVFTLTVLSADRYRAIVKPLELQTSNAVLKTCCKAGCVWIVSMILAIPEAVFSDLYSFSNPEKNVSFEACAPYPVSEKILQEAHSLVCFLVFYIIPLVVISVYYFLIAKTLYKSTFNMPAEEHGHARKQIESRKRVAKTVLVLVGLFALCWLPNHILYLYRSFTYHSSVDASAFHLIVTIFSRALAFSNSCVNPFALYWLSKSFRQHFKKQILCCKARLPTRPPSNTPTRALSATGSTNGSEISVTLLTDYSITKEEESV
Sequence of spotted gar bombesin receptor subtype-3 (spotted gar (Lepisosteus oculatus)) (main, as listed by the source): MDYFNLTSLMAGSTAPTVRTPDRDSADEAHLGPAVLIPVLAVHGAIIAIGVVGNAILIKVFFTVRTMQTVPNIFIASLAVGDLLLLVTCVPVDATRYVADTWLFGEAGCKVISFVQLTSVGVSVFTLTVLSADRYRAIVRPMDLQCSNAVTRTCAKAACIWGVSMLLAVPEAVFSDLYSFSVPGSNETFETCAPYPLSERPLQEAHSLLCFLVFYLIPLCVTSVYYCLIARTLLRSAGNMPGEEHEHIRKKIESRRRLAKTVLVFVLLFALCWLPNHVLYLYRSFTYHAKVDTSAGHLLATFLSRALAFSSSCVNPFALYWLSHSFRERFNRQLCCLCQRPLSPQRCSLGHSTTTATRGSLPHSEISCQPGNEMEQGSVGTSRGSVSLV
Sequence of aardvark bombesin receptor subtype-3 (aardvark (Orycteropus afer)) (P32247 other isoform, or with tags, fused parts or gaps): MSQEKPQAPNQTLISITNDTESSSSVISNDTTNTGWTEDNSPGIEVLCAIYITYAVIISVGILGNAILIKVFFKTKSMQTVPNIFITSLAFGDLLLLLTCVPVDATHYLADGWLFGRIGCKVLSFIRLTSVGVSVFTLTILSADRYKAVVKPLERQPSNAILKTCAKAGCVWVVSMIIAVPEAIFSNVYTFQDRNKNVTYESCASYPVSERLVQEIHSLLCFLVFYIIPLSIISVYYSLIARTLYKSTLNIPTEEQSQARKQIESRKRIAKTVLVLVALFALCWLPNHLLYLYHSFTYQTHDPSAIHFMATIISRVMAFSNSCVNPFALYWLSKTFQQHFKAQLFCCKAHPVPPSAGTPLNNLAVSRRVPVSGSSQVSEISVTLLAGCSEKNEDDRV

Regarding “neuromedin B, unlabeled ligand peptide of the radioligand binding assays”, the IC50 (as a rule, the concentration that gives 50% inhibition) in test [1] was 1.14 nM; in test [2], 1.74 nM; in test [3] it was 1.35 nM; in test [4], 2.82 nM; in test [5], 2.65 nM; in test [7] it was 2.26 nM. Besides, in test [6], the Ki (usually the equilibrium dissociation constant of an inhibitor or competing ligand from its target) is more than 1000 nM.
